Experimental data from US20200347136A1, “CONSTRAINED CYCLIC PEPTIDES AS INHIBITORS OF THE CD2:CD58 PROTEIN-PROTEIN INTERACTION FOR TREATMENT OF DISEASES AND AUTOIMMUNE DISORDERS” (Board of Supervisors for the University of Louisiana System, priority 2019, published 2020).

Key:
[1] = target: CD58 expressed on OVCAR-3 and HFLS-RA cells (human) (UniProt P19256); assay: cell adhesion inhibition (Jurkat CD2 / CD58 cells); HFLS-RA cells
[2] = target: CD58 expressed on OVCAR-3 and HFLS-RA cells (human) (UniProt P19256); assay: cell adhesion inhibition (Jurkat CD2 / CD58 cells); OVCAR-3 cells

Sequence of CD58 expressed on OVCAR-3 and HFLS-RA cells (human) (P19256 29-250): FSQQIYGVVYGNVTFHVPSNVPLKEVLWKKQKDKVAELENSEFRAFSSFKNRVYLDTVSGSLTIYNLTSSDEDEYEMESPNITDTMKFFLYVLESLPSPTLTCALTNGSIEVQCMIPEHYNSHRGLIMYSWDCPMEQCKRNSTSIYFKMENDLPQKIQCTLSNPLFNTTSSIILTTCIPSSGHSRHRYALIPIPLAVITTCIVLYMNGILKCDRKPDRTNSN

IC50 [1]	IC50 [2]	Substance
> 100 µM	> 100 µM	Control
> 50 µM	> 50 µM	SFTI-wt (control)
